catalytic (cyclization) activity of the GpeC mutant relative to the wild type (GpeC F214A): > 50%
catalytic (cyclization) activity of the GpeC mutant relative to the wild type (GpeC Y163A): > 50%
catalytic (cyclization) activity of the GpeC mutant relative to the wild type (GpeC R152A): > 50%
catalytic (cyclization) activity of the GpeC mutant relative to the wild type (GpeC R160A): > 50%
Binder: WFWMLYHHM [SGpeA2 (minimal 9-mer substrate)]
